Measured values: publication PMC4417160, “RBM7 subunit of the NEXT complex binds U-rich sequences and targets 3′-end extended forms of snRNAs”

T1: RBM7 RRM (Homo sapiens (cDNA from HEK293T-Rex), UniProt Q9Y580 6-94)
T1 sequence: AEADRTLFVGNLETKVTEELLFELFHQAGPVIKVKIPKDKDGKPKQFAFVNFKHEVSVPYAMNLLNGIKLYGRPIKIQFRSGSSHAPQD

T2: RBM7 RRM K81A (Homo sapiens, UniProt Q9Y580 6-94, K81A)
T2 sequence: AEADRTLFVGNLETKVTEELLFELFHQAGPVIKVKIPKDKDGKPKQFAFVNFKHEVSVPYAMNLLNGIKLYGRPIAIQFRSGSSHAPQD

T3: RBM7 RRM K40A (Homo sapiens, UniProt Q9Y580 6-94, K40A)
T3 sequence: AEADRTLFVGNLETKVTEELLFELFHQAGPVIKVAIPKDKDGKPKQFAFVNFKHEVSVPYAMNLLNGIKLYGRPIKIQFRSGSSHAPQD

T4: RBM7 RRM K38A (Homo sapiens, UniProt Q9Y580 6-94, K38A)
T4 sequence: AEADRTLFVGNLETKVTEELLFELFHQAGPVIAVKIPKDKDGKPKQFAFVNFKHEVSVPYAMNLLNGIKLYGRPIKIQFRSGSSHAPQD


Columns and labels:
Experiment in all cases: fluorescence anisotropy; FA: 50 mM Tris pH 7.0 (also given as pH 8), 200 mM NaCl, 10 mM 2-mercaptoethanol, 20 C; NMR: 20 mM Bis-Tris pH 7.0, 200 mM NaCl, 4 mM 2-mercaptoethanol; pull-down: HSB, 1 h at 30 C
Details in all cases: protein: recombinant; tags: 6xHis-Smt3 removed with Ulp1; label: 5' fluorescein
RBM7 RRM = molecular target: T1, RBM7 RRM
RBM7 RRM K81A = molecular target: T2, RBM7 RRM K81A
RBM7 RRM K40A = molecular target: T3, RBM7 RRM K40A
RBM7 RRM K38A = molecular target: T4, RBM7 RRM K38A

Binder	Kd (RBM7 RRM) [µM]	other results
UUUUUUU (ssRNA) [U7]	60 ± 10	
CUCUCUC (ssRNA) [Y7]	70 ± 10	Kd (RBM7 RRM K81A): 100 ± 10 µM; Kd (RBM7 RRM K40A): 200 ± 20 µM; Kd (RBM7 RRM K38A): 90 ± 10 µM
AAAAAAA (ssRNA) [A7]		binding result (RBM7 RRM): no binding
CUUCU (ssRNA) [Y5]	90 ± 10	
CUCU (ssRNA) [Y4]	160 ± 10	
AUUAUUA (ssRNA) [AU7]	130 ± 10	
